Experimental data from patent US12365732 (23ANDME, dated 2025).
Substitutions are numbered along the chain they refer to. Numbers in names are those of the source.

Tests used:
[1] = molecular target: T1, hu-CD96 isoform 2 on CHO cells (human, UniProt P40200 22-585); assay: FACS, Ab 0.4 nM
T1 construct: also called CHO-CD96 (isoform 2); CD96-CHOs
T1 sequence: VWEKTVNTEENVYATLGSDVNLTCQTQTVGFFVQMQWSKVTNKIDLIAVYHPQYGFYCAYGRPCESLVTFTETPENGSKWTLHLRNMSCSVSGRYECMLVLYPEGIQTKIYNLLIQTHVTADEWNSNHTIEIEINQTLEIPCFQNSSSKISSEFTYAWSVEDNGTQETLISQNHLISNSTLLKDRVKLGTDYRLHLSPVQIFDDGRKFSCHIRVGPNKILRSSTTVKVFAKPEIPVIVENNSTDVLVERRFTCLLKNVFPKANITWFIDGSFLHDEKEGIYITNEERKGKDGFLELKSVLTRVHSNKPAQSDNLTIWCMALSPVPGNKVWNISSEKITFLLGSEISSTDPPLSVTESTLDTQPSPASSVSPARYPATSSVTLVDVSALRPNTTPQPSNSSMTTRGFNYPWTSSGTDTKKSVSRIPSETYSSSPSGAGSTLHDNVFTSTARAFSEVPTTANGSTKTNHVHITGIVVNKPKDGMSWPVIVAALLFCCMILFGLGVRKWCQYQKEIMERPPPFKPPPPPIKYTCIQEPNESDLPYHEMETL
Description: Isoform 1 of hu-CD96 (Origene, catalog #RC213845) was transiently expressed in HEK293T cells following standard lipofectamine or Fugene transfection protocol. […] Cells were washed, and binding was detected by incubation with anti-mouse IgG-FITC (Biolegend, catalog #406001) for 20 minutes at 4° C. Cell binding was analyzed by flow cytometry with a CytoFLEX (Beckman Coulter). Binding curves were calculated as a percentage of cells positive for bound antibody.
Isoform 2 of hu-CD96 (DNA construct: Origene, catalog #RC221005) was expressed on a single-cell-clone-derived CHO stable cell line. Binding of the anti-CD96 antibodies to the CHO cells were determined as described above with isoform 1 of hu-CD96.

cy-CD96 Fc = molecular target: T2, cy-CD96 Fc (cynomolgus monkey, biotinylated in Table 16); assay: SPR 25C, CD96-Fc on Protein A, Fab analyte
T2 construct: also called biotinylated cy-CD96-Fc
Description: Briefly, hu-CD96 Fc and cy-CD96 Fc were diluted at 10 µg/mL in HBS-P buffer (0.01 M HEPES pH 7.4, 0.15 M NaCl, 0.005% Surfactant P20) and applied to the Protein A chip at 30 µL/min flow rate for 60 s in flow cell 2 (FC2). Then flow 3-fold serial dilutions of mAb1.v7 Fab variants in HBS-P buffer (0.01 M HEPES pH 7.4, 0.15 M NaCl, 0.005% surfactant P20) from (0.4 nM) to high (1000 nM) were injected (flow rate: 30 µL/min) at 25° C. to both flow cell 1 (FC1) and flow cell 2 (FC2). The sensorgram was recorded and subject to reference and buffer subtraction before evaluating by BIA- CORE® 8K Evaluation Software (version 1.1.1.7442). Association rates ($kon$) and dissociation rates ($koff$) were calculated using a simple one-to-one Langmuir binding model. The equilibrium dissociation constant (K_D) was calculated as the ratio of $koff/kon$, and the values determined for the mAb1.v7 and the 5 Fab variants are summarized in Table 10 (below).

[2] = molecular target: T1, hu-CD96 isoform 2 on CHO cells; assay: FACS, CD155-Fc-FLAG 10 nM, Ab 4 nM
Description: (§1) CHO cells stably expressing isoform 2 of hu-CD96 (Origene, catalog #RC221005) were incubated with anti-CD96 antibodies for 20 minutes at 4° C. The cells were washed, and then incubated with 10 nM human CD155-Fc-FLAG for 30 minutes at 4° C. Cells were washed, and then human CD155-Fc-FLAG binding was detected by incubation with anti-FLAG-APC (Columbia Biosciences, catalog #D3-1718-1MG) for 20 minutes at 4° C. Cell binding was analyzed by flow cytometry with a CytoFLEX (Beckman Coulter). CD155 binding is represented as median fluorescence intensity (MedFI).
(§2) As shown in Table 20 (below), the anti-CD96 antibodies, mAb1.v7.NGS8, mAb1.v7.NGS9, mAb1.v7.NGS10, mAb1.v7.NGS11, and h10G1 inhibited soluble hu-CD155 binding to CD96-expressing CHO cells dose-dependently and potently. The antibody NK92.39 (Fuchs et al., 2004; Biolegend catalog #338405) inhibited receptor binding similarly.

[3] = molecular target: T1, hu-CD96 isoform 2 on CHO cells; assay: FACS, CD155-Fc-FLAG 10 nM, Ab 0.0064 nM
Description: as §1, §2

T2 sequence (chain, as listed by the source): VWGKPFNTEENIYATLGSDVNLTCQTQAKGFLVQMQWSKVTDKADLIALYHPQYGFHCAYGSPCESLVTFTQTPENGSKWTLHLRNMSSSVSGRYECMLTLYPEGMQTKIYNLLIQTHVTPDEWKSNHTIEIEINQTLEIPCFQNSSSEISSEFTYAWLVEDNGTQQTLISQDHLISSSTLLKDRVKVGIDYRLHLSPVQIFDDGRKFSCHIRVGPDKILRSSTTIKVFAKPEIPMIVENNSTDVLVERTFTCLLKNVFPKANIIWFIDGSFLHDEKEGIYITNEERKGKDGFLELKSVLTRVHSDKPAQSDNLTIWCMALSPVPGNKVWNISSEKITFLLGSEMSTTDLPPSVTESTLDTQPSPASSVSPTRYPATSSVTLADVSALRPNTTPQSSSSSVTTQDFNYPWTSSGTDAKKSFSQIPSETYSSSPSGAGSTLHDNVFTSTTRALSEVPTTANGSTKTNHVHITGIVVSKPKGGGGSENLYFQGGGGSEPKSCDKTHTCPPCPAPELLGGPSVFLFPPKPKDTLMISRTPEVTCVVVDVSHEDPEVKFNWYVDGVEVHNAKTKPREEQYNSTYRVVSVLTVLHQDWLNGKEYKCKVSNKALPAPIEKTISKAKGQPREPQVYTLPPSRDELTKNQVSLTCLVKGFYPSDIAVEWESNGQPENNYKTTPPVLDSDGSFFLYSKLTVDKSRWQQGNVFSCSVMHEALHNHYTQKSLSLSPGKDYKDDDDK

B1: 7E5, purified hybridoma antibody (antibody, V domains shown)
VH: QVQLKESGPGLVAPSQSLSIICTVSGFSLTNYGIHWIRQPPGKGLEWLGIIWAGGSTNYNSALMSRLTISKDNSKSQVFLKMNSLQTNDTAIYYCARVSMMGFAYWGQGTLVTVSA
VL: QAVVTQESALTTSPGETVTLTCRSSTGAVTTSNYANWVQEKPDHLFTGLIGGTNNRAPGVPARFSGSLIGDKAALTITGAQTEDEAIYFCSLWYGSHWVFGGGTKLTVL
notes: murine hybridoma IgG
- % positive [1]: 44.1%

B2: mAb1.v7.2 Fab (Fab, V domains shown)
VH: EVQLVQSGAEVKKPGASVKVSCKASGFTFTNNWRHWVRQAPGQGLEWIGMIHFNSGITNINEKFKNRVTMTTDTSTSTAYMELRSLRSEDTAVYYCRSDGVYEGYFDYWGQGTLVTVSS
VL: DIQLTQSPSSLSASVGDRVTITCKASQNVGTAIVWYQQKPGKAPKVLIYSASTRYTGVPSRFSGSGSGTDFTLTISSLQPEDFATYYCQQYSSSPLTFGQGTKVEIK
notes: also called M34R/P52aF/T97V
- Kd (cy-CD96 Fc): 9.24 nM
- koff (cy-CD96 Fc): 0.00024 s⁻¹
- kon (cy-CD96 Fc): 26000 M⁻¹ s⁻¹

B3: mAb1.v7 IgG (humanized 12F8) (antibody, V domains shown)
VH: B2 VH with R34M, F53P, V101T
VL: DIQLTQSPSSLSASVGDRVTITCKASQNVGTAIVWYQQKPGKAPKVLIYSASTRYTGVPSRFSGSGSGTDFTLTISSLQPEDFATYYCQQYSSSPLTFGQGTKVEIKG
notes: human IgG1 N297G
- % positive [1]: 17.7%

B4: mAb1.v7.48 Fab (Fab, V domains shown)
VH: B2 VH with N32R, R34M, F53H
VL: B2 VL
notes: also called N32R/P52aH/T97V
- Kd (cy-CD96 Fc): 8.9 nM
- koff (cy-CD96 Fc): 0.000328 s⁻¹
- kon (cy-CD96 Fc): 36600 M⁻¹ s⁻¹

B5: mAb1.v7.NGS11 IgG (antibody, V domains shown)
VH: B2 VH with W33F, R34M, M50F, F53A
VL: B3 VL
notes: human IgG1 N297G
- CD155-Fc binding (MedFI) [2]: 4860 MedFI
- CD155-Fc binding (MedFI) [3]: 63600 MedFI

B6: mAb1.v7.NGS9 IgG (antibody, V domains shown)
VH: B2 VH with W33F, R34M, F53A
VL: B3 VL
notes: human IgG1 N297G
- CD155-Fc binding (MedFI) [2]: 6100 MedFI
- CD155-Fc binding (MedFI) [3]: 56600 MedFI

B7: mAb1.v7.9 Fab (Fab, V domains shown)
VH: B2 VH with F53M
VL: B2 VL
notes: also called M34R/P52aM/T97V
- Kd (cy-CD96 Fc): 22 nM
- koff (cy-CD96 Fc): 0.000802 s⁻¹
- kon (cy-CD96 Fc): 36400 M⁻¹ s⁻¹

B8: mAb1.v7.NGS10 IgG (antibody, V domains shown)
VH: B2 VH with W33F, R34M, M50F, F53A, V101I
VL: B3 VL
notes: human IgG1 N297G
- CD155-Fc binding (MedFI) [2]: 4940 MedFI
- CD155-Fc binding (MedFI) [3]: 55900 MedFI

B9: mAb1.v7.16 Fab (Fab, V domains shown)
VH: B2 VH with F53P
VL: B2 VL
notes: also called M34R/T97V
- Kd (cy-CD96 Fc): 94 nM
- koff (cy-CD96 Fc): 0.000972 s⁻¹
- kon (cy-CD96 Fc): 10400 M⁻¹ s⁻¹

B10: mAb1.v7.70 Fab (Fab, V domains shown)
VH: B2 VH with N32R, R34M, F53A
VL: B2 VL
notes: also called N32R/P52aA/T97V
- Kd (cy-CD96 Fc): 5 nM
- koff (cy-CD96 Fc): 0.000189 s⁻¹
- kon (cy-CD96 Fc): 37200 M⁻¹ s⁻¹

B11: 9H4, purified hybridoma antibody (antibody, V domains shown)
VH: EVQLLETGGGLVKSGGSLKLSCAASGFTFSDYYMYWVRQTPEKRLEWVAAISDDGTYTYYPDSVKGRFTISRDNANNYLYLQMSSLKSEDTAIYYCAKAGSYDYFDVWGAGTTVTVSS
VL: DIVLTQSPASLAVSLGQRAIISCKASQSVTFADTGLMHWYQQKPGQQPKLLIYRASNLEVGVPTRFSGSGSGTDFTLNIHPVEEEDVATYYCQQSREYPWTFGGGTKLEIK
notes: murine hybridoma IgG
- % positive [1]: 24.1%

B12: 10G1 (clone 10G1.3G8), purified hybridoma antibody (antibody, V domains shown)
VH: QIQLVQSGPELKKPGETVKISCKASGYPFTTYGMSWVKQAPGKGLKWMGWINTDSGVPTYADDFKGRFAFSLETSANTAYLQINSLKNEDAATYFCARNIYYGWGNFDYWGQGTILTVSS
VL: DILMTQSPTTLSVTPGETVSLSCRASQDIYRNLHWYQQKSQGTPRLLIKHASDSISGIPSRFTGSGSGTDFTLSINSVKPEDEGIYYCLQGYSMPYTFGGGTKLEIK
notes: murine hybridoma IgG
- % positive [1]: 25%

B13: h10G1 IgG (humanized 10G1) (antibody, V domains shown)
VH: EIQLVQSGSELKKPGASVKVSCKASGYPFTTYGMSWVRQAPGQGLEWMGWINTDSGVPTYADDFKGRFVFSLDTSVSTAYLQISSLKAEDTAVYFCARNIYYGWGNFDYWGQGTLVTVSS
VL: EIVMTQSPDFQSVTPKEKVTITCRASQDIYRNLHWYQQKPDQTPKLLIKHASDSISGIPSRFSGSGSGTDFTLTINSLEAEDAAAYYCLQGYSMPYTFGGGTKVEIKG
notes: human IgG1 N297G
- CD155-Fc binding (MedFI) [2]: 4860 MedFI
- CD155-Fc binding (MedFI) [3]: 65700 MedFI
